How the values were obtained:
HLA-A*02:01 = experiment: IEDB peptide-MHC binding, purified MHC/direct/fluorescence; filed as Kd, often an IC50 or EC50 that approximates it; ≥ and ≤ were set here for values at or beyond the usual limits of such assays
HLA-A*02:06 = experiment: as above; conditions: source organism: Vibrio vulnificus YJ016
HLA-A*02:12 = experiment: as above
HLA-A*02:19 = experiment: as above
HLA-A*03:01 = experiment: as above
HLA-A*24:03 = experiment: as above
HLA-A*26:01 = experiment: as above
HLA-A*29:02 = experiment: as above
HLA-B*15:01 = experiment: as above
HLA-B*15:17 = experiment: as above
HLA-B*18:01 = experiment: as above
HLA-B*27:03 = experiment: as above
HLA-B*39:01 = experiment: as above
HLA-B*46:01 = experiment: as above
HLA-B*51:01 = experiment: as above
HLA-B*57:01 = experiment: as above
HLA-A*01:01 = experiment: IEDB peptide-MHC binding, purified MHC/competitive/fluorescence; filed as Kd, often an IC50 or EC50 that approximates it; ≥ and ≤ were set here for values at or beyond the usual limits of such assays
HLA-A*11:01 = experiment: as above
HLA-A*23:01 [1] = experiment: as above; conditions: source organism: Vibrio vulnificus YJ016
HLA-A*30:01 = experiment: as above; conditions: source organism: Vibrio vulnificus YJ016
HLA-A*30:02 = experiment: as above
HLA-A*66:01 = experiment: as above
HLA-B*07:02 = experiment: as above; conditions: source organism: Vibrio vulnificus YJ016
HLA-B*08:01 = experiment: as above
HLA-B*14:02 = experiment: as above
HLA-B*27:05 = experiment: as above
HLA-B*40:01 = experiment: as above
HLA-B*44:02 = experiment: as above
HLA-B*53:01 = experiment: as above
HLA-B*58:01 = experiment: as above
HLA-A*02:03 = experiment: IEDB peptide-MHC binding, purified MHC/direct/fluorescence; filed as Kd, often an IC50 or EC50 that approximates it; ≥ and ≤ were set here for values at or beyond the usual limits of such assays; conditions: source organism: Brucella melitensis bv. 1 str. 16M
HLA-A*02:11 = experiment: as above; conditions: source organism: Brucella melitensis bv. 1 str. 16M
HLA-A*02:16 = experiment: as above; conditions: source organism: Brucella melitensis bv. 1 str. 16M
HLA-A*23:01 [2] = experiment: as above; conditions: source organism: Brucella melitensis bv. 1 str. 16M
HLA-A*68:02 = experiment: as above; conditions: source organism: Brucella melitensis bv. 1 str. 16M
[3] = source organism: Vibrio vulnificus YJ016
[4] = source organism: Brucella melitensis bv. 1 str. 16M

## SVFELSNFA
HLA-A*02:01; [3]
  Kd: 0.008 µM
HLA-A*02:06
  Kd: 0.002 µM
HLA-A*02:12; [3]
  Kd: 0.679 µM
HLA-A*02:19; [3]
  Kd: ≥ 20 µM
HLA-A*03:01; [3]
  Kd: ≥ 20 µM
HLA-A*24:03; [3]
  Kd: ≥ 20 µM
HLA-A*26:01; [3]
  Kd: ≥ 20 µM
HLA-A*29:02; [3]
  Kd: ≥ 20 µM
HLA-B*15:01; [3]
  Kd: ≥ 20 µM
HLA-B*15:17; [3]
  Kd: ≥ 20 µM
HLA-B*18:01; [3]
  Kd: ≥ 20 µM
HLA-B*27:03; [3]
  Kd: ≥ 20 µM
HLA-B*39:01; [3]
  Kd: ≥ 20 µM
HLA-B*46:01; [3]
  Kd: ≥ 20 µM
HLA-B*51:01; [3]
  Kd: ≥ 20 µM
HLA-B*57:01; [3]
  Kd: ≥ 20 µM
HLA-A*01:01; [3]
  Kd: ≥ 5 µM
HLA-A*11:01; [3]
  Kd: ≥ 5 µM
HLA-A*23:01 [1]
  Kd: ≥ 5 µM
HLA-A*30:01
  Kd: ≥ 5 µM
HLA-A*30:02; [3]
  Kd: ≥ 5 µM
HLA-A*66:01; [3]
  Kd: ≥ 5 µM
HLA-B*07:02
  Kd: ≥ 5 µM
HLA-B*08:01; [3]
  Kd: ≥ 5 µM
HLA-B*14:02; [3]
  Kd: ≥ 5 µM
HLA-B*27:05; [3]
  Kd: ≥ 5 µM
HLA-B*40:01; [3]
  Kd: ≥ 5 µM
HLA-B*44:02; [3]
  Kd: ≥ 5 µM
HLA-B*53:01; [3]
  Kd: ≥ 5 µM
HLA-B*58:01; [3]
  Kd: ≥ 5 µM

## TTRAVNMEV
HLA-A*02:01; [4]
  Kd: ≥ 20 µM
HLA-A*02:03
  Kd: ≥ 20 µM
HLA-A*02:11
  Kd: ≥ 20 µM
HLA-A*02:12; [4]
  Kd: ≥ 20 µM
HLA-A*02:16
  Kd: ≥ 20 µM
HLA-A*02:19; [4]
  Kd: ≥ 20 µM
HLA-A*03:01; [4]
  Kd: ≥ 20 µM
HLA-A*23:01 [2]
  Kd: ≥ 20 µM
HLA-A*24:03; [4]
  Kd: ≥ 20 µM
HLA-A*26:01; [4]
  Kd: ≥ 20 µM
HLA-A*29:02; [4]
  Kd: ≥ 20 µM
HLA-A*68:02
  Kd: ≤ 0.001 µM
HLA-B*15:01; [4]
  Kd: ≥ 20 µM
HLA-B*15:17; [4]
  Kd: ≥ 20 µM
HLA-B*18:01; [4]
  Kd: ≥ 20 µM
HLA-B*27:03; [4]
  Kd: ≥ 20 µM
HLA-B*39:01; [4]
  Kd: ≥ 20 µM
HLA-B*46:01; [4]
  Kd: ≥ 20 µM
HLA-B*51:01; [4]
  Kd: ≥ 20 µM
HLA-B*57:01; [4]
  Kd: ≥ 20 µM
HLA-A*01:01; [4]
  Kd: ≥ 5 µM
HLA-A*11:01; [4]
  Kd: ≥ 5 µM
HLA-A*30:02; [4]
  Kd: ≥ 5 µM
HLA-A*66:01; [4]
  Kd: ≥ 5 µM
HLA-B*08:01; [4]
  Kd: ≥ 5 µM
HLA-B*14:02; [4]
  Kd: ≥ 5 µM
HLA-B*27:05; [4]
  Kd: ≥ 5 µM
HLA-B*40:01; [4]
  Kd: ≥ 5 µM
HLA-B*44:02; [4]
  Kd: ≥ 5 µM
HLA-B*53:01; [4]
  Kd: ≥ 5 µM
HLA-B*58:01; [4]
  Kd: ≥ 5 µM
